In article PMC4263767, “IL-28B is a Key Regulator of B- and T-Cell Vaccine Responses against Influenza” (PLoS Pathogens, 2014):
Entries after “also recorded” stand apart in the source; their conditions may differ.

What was measured:
[1] = system: CD3+CD4+ T-cells in PBMCs from transplant recipients; format: cell-based, human
[2] = system: PBMCs from transplant recipients; format: cell-based, human; settings: IL-28B 100 ng/mL, 2 h before 5-day H1N1; 38 transplant recipients; p = 0.004
[3] = system: T-cells, monocytes and macrophages; settings: ref [42], [43]; cited from earlier work
Description: The IFN-λ family (Interleukin-28A, -28B, -29, and IFN-λ4) is a recently described class of IFNs with antiviral properties similar to IFN-α and -β [14]–[17]. IFN-λ is known to induce phosphorylation of STAT-1 and -2 via binding to its receptor, which is a heterodimer consisting of the IL-28 receptor alpha subunit (IL28RA) and IL-10 receptor beta subunit (IL10RB). […] Furthermore, IFN-λs induced the development of T-regu ... || IL-28B (IFN-λ3) belongs to the family of IFN-lambdas and shares antiviral properties similar to IFN-α via induction of interferon stimulated genes (ISGs) such as MX1 or OAS1 [41]. […] IL-12 is a key cytokine for the induction of Th1 cells and cytotoxic lymphocytes, [43]. SNPs in the IL-28B gene (minor-allele genotypes) have been associated with reduced IL-28B expression, [29]–[33], which could impact adaptive immune functions during vaccination. One limitation of our study is that we d ...

[4] = system: PBMCs from healthy volunteers; experiment: Cytokine release by H1N1-stimulated healthy volunteer PBMCs, 5 days (luminex); format: cell-based, human
[5] = with IL-28B, 5-day H1N1, HV PBMCs n=9, median (IQR)

B1: IL-28B: recombinant IL-28B, a member of the interferon (IFN)-λ family (protein)
chain: VPVARLRGALPDARGCHIAQFKSLSPQELQAFKRAKDALEESLLLKDCKCRSRLFPRTWDLRQLQVRERPVALEAELALTLKVLEATADTDPALGDVLDQPLHTLHHILSQLRACIQPQPTAGPRTRGRLHHWLHRLQEAPKKESPGCLEASVTFNLFRLLTRDLNCVASGDLCV
modifications: left off: His tag, end not stated, kept
notes: recombinant IL-28B, a member of the interferon (IFN)-λ family
Which “fold reduction in IL-4 production by CD3+CD4+ T-cells” value ([1]; IL-28B 100 ng/mL, 2 h before overnight H1N1, transplant recipients n = 47) does the source give for B1 here?
The value was > 2 -fold.

And the “sensitivity of IL-4 production to IL-28B by genotype” value ([1]; minor allele (TG or GG) PBMCs, 45 transplant recipients)?
The value was “particularly pronounced in patients with a minor allele genotype; also recorded: strong sensitivity to IL-28B”.

And the “H1N1-induced IgG production with IL-28B (in words)” value [2]?
Its value is “significantly decreased”.

And the “IL-12 production in monocytes and macrophages” value [3]?
The value was “induce IL-12 production in monocytes and macrophages”.

What about the “production of B-cell trophic and Th2 cytokines (in words)” value ([4]; 5-day H1N1, n = 9) of the same molecule?
Its value is “significant decrease in the production of cytokines trophic for B-cells such as GRO, Fractalkine, and Th2-cytokines (IL-4, IL-5, IL-9, and IL-13)”.

And the “IFN-α2, ratio IL28/no IL28” value ([4]; 5-day H1N1, p=0.004)?
Its value is 1.7.

And the “sIL2Ra, ratio IL28/no IL28” value ([4]; 5-day H1N1, p=0.004)?
Its value is 0.6.

What about the “Fractalkine, ratio IL28/no IL28” value ([4]; 5-day H1N1, p=0.008) of the same molecule?
Its value is 0.3.

What about the “GRO, ratio IL28/no IL28” value ([4]; 5-day H1N1, p=0.008) of the same molecule?
Its value is 0.0.

And the “IL-9, ratio IL28/no IL28” value ([4]; 5-day H1N1, p=0.008)?
Its value is 0.2.

What about the “sCD40L, ratio IL28/no IL28” value ([4]; 5-day H1N1, p=0.01) of the same molecule?
The value was 0.4.

And the “IL-5, ratio IL28/no IL28” value ([4]; 5-day H1N1, p=0.02)?
The value was 0.0.

What about the “IL-13, ratio IL28/no IL28” value ([4]; 5-day H1N1, p=0.02) of the same molecule?
Its value is 0.6.

What about the “IL-4, ratio IL28/no IL28” value ([4]; 5-day H1N1, p=0.03) of the same molecule?
Its value is 0.5.

And the “IL-6, ratio IL28/no IL28” value ([4]; 5-day H1N1, p=0.03)?
Its value is 1.3.

What about the “TGF-α, ratio IL28/no IL28” value ([4]; 5-day H1N1, p=0.03) of the same molecule?
The value was 1.3.

What about the “IL-1β, ratio IL28/no IL28” value ([4]; 5-day H1N1, p=0.04) of the same molecule?
Its value is 1.9.

And the “IP-10, ratio IL28/no IL28” value ([4]; 5-day H1N1, p=0.08)?
Its value is 0.3.

And the “FLT3, ratio IL28/no IL28” value ([4]; 5-day H1N1, p=0.11)?
Its value is 0.5.

And the “IL-3, ratio IL28/no IL28” value ([4]; 5-day H1N1, p=0.16)?
The value was 0.3.

What about the “TNF-β, ratio IL28/no IL28” value ([4]; 5-day H1N1, p=0.16) of the same molecule?
Its value is 0.6.

What about the “IL-15, ratio IL28/no IL28” value ([4]; 5-day H1N1, p=0.17) of the same molecule?
The value was 0.9.

What about the “MCP-3, ratio IL28/no IL28” value ([4]; 5-day H1N1, p=0.25) of the same molecule?
Its value is 1.1.

And the “PDGF AA, ratio IL28/no IL28” value ([4]; 5-day H1N1, p=0.25)?
The value was 1.0.

And the “FGF2, ratio IL28/no IL28” value ([4]; 5-day H1N1, p=0.31)?
The value was 0.8.

What about the “GM-CSF, ratio IL28/no IL28” value ([4]; 5-day H1N1, p=0.38) of the same molecule?
The value was 0.7.

And the “IFN-γ, ratio IL28/no IL28” value ([4]; 5-day H1N1, p=0.43)?
Its value is 0.9.

And the “IL-12p40, ratio IL28/no IL28” value ([4]; 5-day H1N1, p=0.44)?
The value was 0.7.

And the “MIP-1β, ratio IL28/no IL28” value ([4]; 5-day H1N1, p=0.46)?
The value was 1.2.

And the “Eotaxin, ratio IL28/no IL28” value ([4]; 5-day H1N1, p=0.47)?
The value was 0.5.

What about the “MCP-1, ratio IL28/no IL28” value ([4]; 5-day H1N1, p=0.55) of the same molecule?
The value was 0.4.

What about the “TNF-α, ratio IL28/no IL28” value ([4]; 5-day H1N1, p=0.55) of the same molecule?
The value was 1.0.

And the “IL-12p70, ratio IL28/no IL28” value ([4]; 5-day H1N1, p=0.64)?
Its value is 0.7.

And the “IL-17, ratio IL28/no IL28” value ([4]; 5-day H1N1, p=0.69)?
Its value is 0.2.

And the “MIP-1α, ratio IL28/no IL28” value ([4]; 5-day H1N1, p=0.74)?
The value was 1.1.

What about the “RANTES, ratio IL28/no IL28” value ([4]; 5-day H1N1, p=0.74) of the same molecule?
Its value is 1.2.

And the “G-CSF, ratio IL28/no IL28” value ([4]; 5-day H1N1, p=0.75)?
The value was 1.0.

What about the “IL-7, ratio IL28/no IL28” value ([4]; 5-day H1N1, p=0.75) of the same molecule?
Its value is 1.0.

And the “IL-1α, ratio IL28/no IL28” value ([4]; 5-day H1N1, p=0.82)?
The value was 1.1.

What about the “IL-10, ratio IL28/no IL28” value ([4]; 5-day H1N1, p=0.82) of the same molecule?
Its value is 1.0.

What about the “VEGF, ratio IL28/no IL28” value ([4]; 5-day H1N1, p=0.82) of the same molecule?
The value was 1.2.

What about the “IL-1ra, ratio IL28/no IL28” value ([4]; 5-day H1N1, p=0.84) of the same molecule?
Its value is 1.1.

What about the “IL-2, ratio IL28/no IL28” value ([4]; 5-day H1N1, p=0.84) of the same molecule?
Its value is 2.0.

What about the “IL-8, ratio IL28/no IL28” value ([4]; 5-day H1N1, p=0.95) of the same molecule?
Its value is 0.9.

What about the “PDGF AB/BB, ratio IL28/no IL28” value ([4]; 5-day H1N1, p=0.95) of the same molecule?
The value was 1.3.

What about the “EGF, ratio IL28/no IL28” value ([4]; 5-day H1N1, p=1.00) of the same molecule?
Its value is 1.0.

What about the “MDC, ratio IL28/no IL28” value ([4]; 5-day H1N1, p=1.00) of the same molecule?
The value was 1.0.

And the “Th2-cytokines (in words, abstract)” value ([4]; in vitro)?
The value was “suppressed Th2-cytokines (e.g. IL-4, IL-5, and IL-13)”.

What about the EGF [4, 5] of the same molecule?
The EGF was 3.7 (3.7-3.7) pg/mL.

And the Eotaxin [4, 5]?
The Eotaxin was 3.2 (3.2-6.9) pg/mL.

What about the FGF2 [4, 5] of the same molecule?
The FGF2 was 13.1 (3.8-19.2) pg/mL.

And the FLT3 [4, 5]?
The FLT3 was 4.0 (3.2-9.4) pg/mL.

What about the Fractalkine [4, 5] of the same molecule?
The Fractalkine was 4.2 (0.6-10.7) pg/mL.

And the G-CSF [4, 5]?
Its G-CSF is 3.2 (3.2-4.2) pg/mL.

And the GM-CSF [4, 5]?
Its GM-CSF is 358.9 (3.2-480.7) pg/mL.

And the GRO [4, 5]?
The GRO was 3.6 (3.6-3.6) pg/mL.

And the IFN-α2 [4, 5]?
Its IFN-α2 is 2262.0 (808.2-3663.0) pg/mL.

What about the IFN-γ [4, 5] of the same molecule?
Its IFN-γ is 6028.0 (3513.0-9802.0) pg/mL.

What about the IL-1ra [4, 5] of the same molecule?
Its IL-1ra is 376.6 (3.2-838.8) pg/mL.

What about the IL-1α [4, 5] of the same molecule?
Its IL-1α is 15.1 (7.8-18.6) pg/mL.

What about the IL-1β [4, 5] of the same molecule?
Its IL-1β is 16.8 (6.8-29.2) pg/mL.

What about the IL-2 [4, 5] of the same molecule?
Its IL-2 is 16.5 (0.6-60.4) pg/mL.

What about the IL-3 [4, 5] of the same molecule?
Its IL-3 is 0.8 (0.6-3.5) pg/mL.

And the IL-4 [4, 5]?
The IL-4 was 16.2 (6.1-33.1) pg/mL.
